Our source for the Kd values is the Immune Epitope Database (IEDB).

Some targets named below: HLA-A*03:01; HLA-A*68:01; HLA-A*11:01; HLA-A*33:01; HLA-A*31:01.
Common to all, as to test: IEDB peptide-MHC binding, purified MHC/competitive/radioactivity; filed as Kd, often an IC50 or EC50 that approximates it; ≥ and ≤ were set here for values at or beyond the usual limits of such assays
Setting [1] is: source organism: Dengue virus 3 Martinique/1243/1999.
[2] abbreviates: source organism: Vaccinia virus WR.
Setting [3] is: source organism: Dengue virus 2 Jamaica/1409/1983.
The mark [4] stands for this setting: source organism: Mammarenavirus guanaritoense.
[5] abbreviates: source organism: Mammarenavirus juninense.
Where [6] appears, read: source organism: Mammarenavirus lassaense.
[7] abbreviates: source organism: Mammarenavirus machupoense.

Broadly, the Kd is the concentration at which binding is half-saturated.

LLNGQGPMK: the Kd with HLA-A*03:01 (setting [1]) amounted to 16.2 nM.

Take KAEMQLKIDK: the dissociation constant (Kd) in the assay with HLA-A*68:01 (setting [2]) was at least 25200 nM; with HLA-A*11:01 (setting [2]), 125 nM; with HLA-A*33:01 (setting [2]), 19800 nM; in the assay with HLA-A*03:01 (setting [2]), 3720 nM; with HLA-A*31:01 (setting [2]), 3270 nM.

With TVCYVLTGR, the Kd with HLA-A*68:01 (setting [3]) was 15.2 nM; in the assay with HLA-A*33:01 (setting [3]), 1.6 nM; with HLA-A*31:01 (setting [3]), 10.3 nM.

Consider NSQIFNIISY, for which the Kd in the assay with HLA-A*68:01 (setting [2]) turned out to be 441 nM; with HLA-A*11:01 (setting [2]), 5090 nM; with HLA-A*33:01 (setting [2]), 10600 nM; in the assay with HLA-A*03:01 (setting [2]), 1080 nM; with HLA-A*31:01 (setting [2]) it was 1320 nM.

On to FALKKLIIDR, for which the Kd in the assay with HLA-A*68:01 (setting [2]) was 550 nM; with HLA-A*11:01 (setting [2]), 2100 nM; with HLA-A*33:01 (setting [2]), 3300 nM; in the assay with HLA-A*03:01 (setting [2]) it was at least 70100 nM; with HLA-A*31:01 (setting [2]), 1070 nM.

VSMTYLYNKY: the Kd with HLA-A*68:01 (setting [2]) was at least 70200 nM; with HLA-A*11:01 (setting [2]) it was 96.5 nM; with HLA-A*33:01 (setting [2]), at least 70000 nM; with HLA-A*03:01 (setting [2]) it was 15400 nM; with HLA-A*31:01 (setting [2]) it was at least 28900 nM.

As for EIIFLKLFKK, the dissociation constant (Kd) in the assay with HLA-A*68:01 (setting [2]) came out at 5.36 nM; in the assay with HLA-A*11:01 (setting [2]) it was 17.7 nM; with HLA-A*33:01 (setting [2]), 129 nM; in the assay with HLA-A*03:01 (setting [2]), 88.2 nM; in the assay with HLA-A*31:01 (setting [2]), 20 nM.

In the case of YYCGGLKNVR, in the assay with HLA-A*33:01 (setting [3]), the Kd is 3.1 nM.

In the case of GSWATSSFR, the dissociation constant Kd in the assay with HLA-A*68:01 (setting [2]) turned out to be 54.1 nM; in the assay with HLA-A*11:01 (setting [2]), 7.38 nM; in the assay with HLA-A*33:01 (setting [2]), 226 nM; with HLA-A*03:01 (setting [2]), 111 nM; with HLA-A*31:01 (setting [2]) it was 0.56 nM.

As for VAALDGTFQR, the dissociation constant (Kd) with HLA-A*68:01 (setting [2]) is 40.1 nM; with HLA-A*11:01 (setting [2]), 681 nM; in the assay with HLA-A*33:01 (setting [2]), 675 nM; with HLA-A*03:01 (setting [2]), at least 34100 nM; with HLA-A*31:01 (setting [2]) it was 124 nM.

In the case of ACRCGRFQK, the Kd with HLA-A*11:01 (setting [4]) is 5130 nM; in the assay with HLA-A*33:01 (setting [4]) it was at least 27300 nM; with HLA-A*03:01 (setting [4]), 3570 nM; with HLA-A*31:01 (setting [4]), 1440 nM.

In the case of DVDIYDAVR, the Kd is 179 nM with HLA-A*68:01 (setting [2]); at least 77900 nM with HLA-A*11:01 (setting [2]); 2280 nM in the assay with HLA-A*33:01 (setting [2]); at least 53300 nM with HLA-A*03:01 (setting [2]); 14000 nM with HLA-A*31:01 (setting [2]).

As for MLVTPSMTMR, the Kd in the assay with HLA-A*68:01 (setting [1]) was 54.7 nM; in the assay with HLA-A*31:01 (setting [1]), 111 nM.

In the case of MYFHRRDLR, the Kd was determined as 346 nM in the assay with HLA-A*68:01 (setting [3]), 5.64 nM with HLA-A*33:01 (setting [3]) and 0.137 nM with HLA-A*31:01 (setting [3]).

Turning to PAAEFRRVAH, the equilibrium dissociation constant (Kd) was at least 70100 nM with HLA-A*68:01 (setting [5]); at least 69700 nM in the assay with HLA-A*11:01 (setting [5]); at least 24400 nM with HLA-A*33:01 (setting [5]); at least 70000 nM in the assay with HLA-A*03:01 (setting [5]); 9340 nM in the assay with HLA-A*31:01 (setting [5]).

For the sequence TLGSFTWFPH, the equilibrium dissociation constant (Kd) is at least 25700 nM with HLA-A*68:01 (setting [6]); 4990 nM in the assay with HLA-A*11:01 (setting [6]); 13400 nM with HLA-A*33:01 (setting [6]); 428 nM with HLA-A*03:01 (setting [6]); 782 nM with HLA-A*31:01 (setting [6]).

Regarding VVDTFISYNR, the dissociation constant Kd with HLA-A*68:01 (setting [2]) was found to be 80.5 nM; with HLA-A*11:01 (setting [2]) it was 343 nM; in the assay with HLA-A*33:01 (setting [2]), 101 nM; in the assay with HLA-A*03:01 (setting [2]), 2540 nM; in the assay with HLA-A*31:01 (setting [2]), 25.2 nM.

As for LNNSFYYMK, the dissociation constant Kd with HLA-A*68:01 (setting [7]) was 67.7 nM; with HLA-A*11:01 (setting [7]), 619 nM; in the assay with HLA-A*33:01 (setting [7]), at least 77700 nM; with HLA-A*03:01 (setting [7]) it was 7240 nM; with HLA-A*31:01 (setting [7]) it was 26.4 nM.

For the sequence SSKGNCAIK, the Kd with HLA-A*68:01 (setting [2]) was determined as 3480 nM; with HLA-A*11:01 (setting [2]) it was 2150 nM; in the assay with HLA-A*33:01 (setting [2]) it was 17700 nM; in the assay with HLA-A*03:01 (setting [2]), 6770 nM; with HLA-A*31:01 (setting [2]), 2150 nM.

As for AALSEGVYR, the Kd with HLA-A*31:01 (source organism: Dengue virus 4 Dominica/814669/1981) amounted to 169 nM.

For MSTYSDICSK, the Kd in the assay with HLA-A*68:01 (setting [2]) was at least 70200 nM; with HLA-A*11:01 (setting [2]) it was at least 69800 nM; with HLA-A*33:01 (setting [2]), at least 70000 nM; with HLA-A*03:01 (setting [2]), at least 70100 nM; with HLA-A*31:01 (setting [2]), at least 70000 nM.

Take KQYDSTDFK: the Kd with HLA-A*68:01 (setting [2]) was 1860 nM; with HLA-A*11:01 (setting [2]) it was 33.5 nM; with HLA-A*33:01 (setting [2]), at least 25500 nM; in the assay with HLA-A*03:01 (setting [2]), 61.8 nM; with HLA-A*31:01 (setting [2]), 70.9 nM.

For QTVDFTDCR, the Kd is 1.57 nM with HLA-A*68:01 (setting [2]); 348 nM with HLA-A*11:01 (setting [2]); 5810 nM with HLA-A*33:01 (setting [2]); at least 35500 nM in the assay with HLA-A*03:01 (setting [2]); 722 nM with HLA-A*31:01 (setting [2]).

For the sequence RTLAKEGIKR, the Kd with HLA-A*31:01 (setting [3]) worked out at 14.3 nM.

For PADCFLVKLK, the Kd with HLA-A*68:01 (setting [2]) is at least 22400 nM; with HLA-A*11:01 (setting [2]), 1510 nM; with HLA-A*33:01 (setting [2]), 17100 nM; in the assay with HLA-A*03:01 (setting [2]), 2910 nM; with HLA-A*31:01 (setting [2]), at least 31200 nM.

Turning to LSPAHLINK, the Kd was 16300 nM with HLA-A*68:01 (setting [2]); 39.4 nM in the assay with HLA-A*11:01 (setting [2]); at least 35800 nM with HLA-A*33:01 (setting [2]); 208 nM with HLA-A*03:01 (setting [2]); 18600 nM in the assay with HLA-A*31:01 (setting [2]).
